Reference: patent publication US20260092093A1 (TJ BIOPHARMA SHANGHAI, published 2026)

How the values were obtained:
hIL-18BP-hFc = molecular target: T1, hIL-18BP-hFc (human, UniProt O95998 31-194, limits assumed); assay: cell-based or functional assay
T1 sequence (looked up): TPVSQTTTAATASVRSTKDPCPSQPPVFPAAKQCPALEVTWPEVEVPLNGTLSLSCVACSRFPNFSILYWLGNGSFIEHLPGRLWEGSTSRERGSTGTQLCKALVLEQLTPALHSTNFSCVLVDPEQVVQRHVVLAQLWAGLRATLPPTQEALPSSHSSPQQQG

[1] = molecular target: T2, hIL-18 receptor (hIL-18Rα and hIL-18Rβ) (human, UniProt Q13478 19-541; O95256 20-599); assay: cell-based or functional assay
T2 sequence (looked up) 1: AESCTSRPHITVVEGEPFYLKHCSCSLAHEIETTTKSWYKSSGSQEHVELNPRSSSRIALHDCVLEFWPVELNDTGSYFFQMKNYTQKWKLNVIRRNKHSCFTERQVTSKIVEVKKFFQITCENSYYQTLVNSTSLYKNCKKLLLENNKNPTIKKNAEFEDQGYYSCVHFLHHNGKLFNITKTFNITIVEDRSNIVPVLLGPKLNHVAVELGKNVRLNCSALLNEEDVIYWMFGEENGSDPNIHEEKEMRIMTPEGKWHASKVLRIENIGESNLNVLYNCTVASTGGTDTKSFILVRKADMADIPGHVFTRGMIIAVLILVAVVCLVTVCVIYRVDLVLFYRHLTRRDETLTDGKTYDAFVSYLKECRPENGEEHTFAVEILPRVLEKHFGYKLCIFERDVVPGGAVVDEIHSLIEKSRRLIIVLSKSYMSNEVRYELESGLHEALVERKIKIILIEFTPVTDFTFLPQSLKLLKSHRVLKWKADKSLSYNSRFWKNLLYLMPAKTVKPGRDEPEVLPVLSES
T2 sequence (looked up) 2: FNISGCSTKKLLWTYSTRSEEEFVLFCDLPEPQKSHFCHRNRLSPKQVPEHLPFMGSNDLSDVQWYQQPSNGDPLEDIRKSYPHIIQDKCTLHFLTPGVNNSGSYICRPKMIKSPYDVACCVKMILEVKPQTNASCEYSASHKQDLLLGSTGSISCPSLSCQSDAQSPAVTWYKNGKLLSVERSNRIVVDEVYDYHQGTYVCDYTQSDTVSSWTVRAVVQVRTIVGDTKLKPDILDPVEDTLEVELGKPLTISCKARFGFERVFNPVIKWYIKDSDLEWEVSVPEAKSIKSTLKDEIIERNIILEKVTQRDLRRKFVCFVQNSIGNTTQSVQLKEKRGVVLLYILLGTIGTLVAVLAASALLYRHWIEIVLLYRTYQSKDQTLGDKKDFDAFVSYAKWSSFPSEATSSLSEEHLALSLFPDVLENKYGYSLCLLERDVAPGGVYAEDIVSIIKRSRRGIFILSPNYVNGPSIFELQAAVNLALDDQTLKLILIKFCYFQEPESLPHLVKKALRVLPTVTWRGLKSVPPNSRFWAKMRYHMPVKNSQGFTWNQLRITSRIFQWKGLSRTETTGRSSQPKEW

[2] = molecular target: T3, recombinant hIL-18Rα extracellular domain (human, UniProt Q13478 22-329, biotin label (selection) or fluorescent probe (single-clone FACS), sites not given); assay: single-clone FACS, yeast display, 10 nM labelled hIL-18Rα ECD
T3 construct: extracellular domain; also called hIL-18Rα ECD; hIL-18Rα-ECD
T3 sequence (looked up): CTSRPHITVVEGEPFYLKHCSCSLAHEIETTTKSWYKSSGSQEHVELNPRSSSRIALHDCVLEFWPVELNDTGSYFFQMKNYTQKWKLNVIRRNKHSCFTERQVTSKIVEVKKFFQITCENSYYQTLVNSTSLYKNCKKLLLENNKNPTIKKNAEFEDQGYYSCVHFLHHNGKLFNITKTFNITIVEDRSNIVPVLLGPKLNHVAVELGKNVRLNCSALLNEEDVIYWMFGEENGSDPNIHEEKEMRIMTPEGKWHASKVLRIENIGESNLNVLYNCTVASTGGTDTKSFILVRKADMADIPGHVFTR
In short: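 Yeast clones displaying IL-18 variants (screening rounds 4 and 5), at equal density, incubated with 10 nM fluorescently labelled hIL-18Rα ECD, then washed. Fraction of fluorescence-positive binding cells per clone measured by flow cytometry.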

[3] = molecular target: T4, hIL-18Rα ECD-Fc fusion protein (human, UniProt Q13478 22-329); assay: BLI (Octet RED96), hIL-18Rα ECD-Fc on Protein A sensor
T4 construct: extracellular domain; captured on Protein A sensor
T4 sequence (looked up): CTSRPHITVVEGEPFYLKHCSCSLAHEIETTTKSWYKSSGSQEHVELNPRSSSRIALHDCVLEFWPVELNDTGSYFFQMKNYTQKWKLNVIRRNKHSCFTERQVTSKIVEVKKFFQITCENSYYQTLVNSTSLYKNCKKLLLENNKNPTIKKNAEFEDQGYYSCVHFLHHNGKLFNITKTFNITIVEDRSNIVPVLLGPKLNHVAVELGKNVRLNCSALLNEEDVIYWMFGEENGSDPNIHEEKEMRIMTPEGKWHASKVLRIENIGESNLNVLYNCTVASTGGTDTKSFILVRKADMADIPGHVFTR
Description: The affinities of IL-18 variant polypeptides for hIL-18Rα were assessed by Biolayer Interferometry (BLI) on Octet RED96 using Protein A sensor coated with hIL-18Rα ECD-Fc fusion protein, and WT hIL-18 was used as a control.

B1: IL-18 variant polypeptide M27 (ligand)
chain: YFPKLRSKLSVIRNLNDQVLFIDQGNRPLFEDMTDSDCRDNAPRTIFIISMYKHSYTRGMAVTISVKCEKISTLSCENKIISFKEMNPPDVIKDTKSDIIFFQYSVPGHDNKMQFESSSYEGYFLACEKERDLFKLILKKEDELGDRSIMFTVQNED
hIL-18BP-hFc
  EC50 (nM) in the Presence of 1 µg/mL hIL-18BP-hFc, hIL-18 reporter assay: 0.26 nM
  EC50 Fold Change (+BP/-BP), hIL-18 reporter assay: 1.44 fold
[1]
  EC50 (nM), hIL-18 reporter assay: 0.18 nM

B2: IL-18 variant polypeptide M28 (ligand)
chain: YFPKLASKLSVIRNLNDQVLFIDQGNRPLFEDMTDSDCRDNAPRTIFIISMYKWSGGRGMAVTISVKCEKISTLSCENKIISFKEMNPPDVIKDTKSDIIFFQYSVPGHDNKMQFESSSYEGYFLACEKERDLFKLILKKEDELGDRSIMFTVQNED
hIL-18BP-hFc
  EC50 (nM) in the Presence of 1 µg/mL hIL-18BP-hFc, hIL-18 reporter assay: 0.042 nM
  EC50 Fold Change (+BP/-BP), hIL-18 reporter assay: 2.33 fold
[1]
  EC50 (nM), hIL-18 reporter assay: 0.018 nM

B3: IL-18 variant polypeptide M31 (ligand)
chain: YFPKLRSKLSVIRNLNDQVLFIDQGNRPLFEDMTDSDCRDNAPRTIFIISMYKHSIHRGMAVTISVKCEKISTLSCENKIISFKEMNPPDIIKDTKSDIIFFQYSVPGHDNKMQFESSSYEGYFLACEKERDLFKLILKKEDELGDRSIMFTVQNED
hIL-18BP-hFc
  EC50 (nM) in the Presence of 1 µg/mL hIL-18BP-hFc, hIL-18 reporter assay: 0.18 nM
  EC50 Fold Change (+BP/-BP), hIL-18 reporter assay: 0.72 fold
[1]
  EC50 (nM), hIL-18 reporter assay: 0.25 nM

B4: IL-18 variant polypeptide M34 (ligand)
chain: YFPKLRSKLSVIRNLNDQVLFIDQGNRPLFEDMTDSDCRDNAPRTIFIISMYKHSRNRGMAVTISVKCEKISTLSCENKIISFKEMNPPDVIKDTKSDIIFFQESVPGHDNKMQFESSSYEGYFLACEKERDLFKLILKKEDELGDRSIMFTVQNED
hIL-18BP-hFc
  EC50 (nM) in the Presence of 1 µg/mL hIL-18BP-hFc, hIL-18 reporter assay: 0.9 nM
  EC50 Fold Change (+BP/-BP), hIL-18 reporter assay: 1.27 fold
[1]
  EC50 (nM), hIL-18 reporter assay: 0.71 nM

B5: IL-18 variant polypeptide M30 (ligand)
chain: YFPKLLSKLSVIRNLNDQVLFIDQGNRPLFEDMTDSDCRDNAPRTIFIISMYKHSTVRGMAVTISVKCEKISTLSCENKIISFKEMNPPDSIKDTKSDIIFFQRSVPGHDNKMQFESSSYEGYFLACEKERDLFKLILKKEDELGDRSIMFTVQNED
hIL-18BP-hFc
  EC50 (nM) in the Presence of 1 µg/mL hIL-18BP-hFc, hIL-18 reporter assay: 1.7 nM
  EC50 Fold Change (+BP/-BP), hIL-18 reporter assay: 0.68 fold
[1]
  EC50 (nM), hIL-18 reporter assay: 2.5 nM

B6: IL-18 variant polypeptide M37 (ligand)
chain: YFPKLGSKLSVIRNLNDQVLFIDQGNRPLFEDMTDSDCRDNAPRTIFIISMYKQSVWRGMAVTISVKCEKISTLSCENKIISFKEMNPPDNIKDTKSDIIFFQRSVPGHDNKMQFESSSYEGYFLACEKERDLFKLILKKEDELGDRSIMFTVQNED
hIL-18BP-hFc
  EC50 (nM) in the Presence of 1 µg/mL hIL-18BP-hFc, hIL-18 reporter assay: 0.33 nM
  EC50 Fold Change (+BP/-BP), hIL-18 reporter assay: 2.36 fold
[1]
  EC50 (nM), hIL-18 reporter assay: 0.14 nM

B7: IL-18 variant polypeptide M35 (ligand)
chain: YFPKLRSKLSVIRNLNDQVLFIDQGNRPLFEDMTDSDCRDNAPRTIFIISMYKGSGARGMAVTISVKCEKISTLSCENKIISFKEMNPPDGIKDTKSDIIFFQRSVPGHDNKMQFESSSYEGYFLACEKERDLFKLILKKEDELGDRSIMFTVQNED
[2]
  % of fluorescence positive cells: 92.9%
[3]
  Kd: 34.1 nM
  Response (nm): 0.129 nm
  koff: 0.0156 s⁻¹
  kon: 456000 M⁻¹ s⁻¹

B8: IL-18 variant polypeptide M34 (ligand)
chain: YFPKLRSKLSVIRNLNDQVLFIDQGNRPLFEDMTDSDCRDNAPRTIFIISMYKHSRNRGMAVTISVKCEKISTLSCENKIISFKEMNPPDVIKDTKSDIIFFQESVPGHDNKMQFESSSYEGYFLACEKERDLFKLILKKEDELGDRSIMFTVQNED
[2]
  % of fluorescence positive cells: 87.5%
[3]
  Kd: 32.8 nM
  Response (nm): 0.084 nm
  koff: 0.0166 s⁻¹
  kon: 505000 M⁻¹ s⁻¹

B9: IL-18 variant polypeptide M33 (ligand)
chain: YFEKLHSKLSVIRNLNDQVLFIDQGNRPLFEDMTDSDCRDNAPRTIFIISMYKRSTHRGMAVTISVKCEKISTLSCENKIISFKEMNPPDNIKDTKSDIIFFQRSVPGHDNKMQFESSSYEGYFLACEKERDLFKLILKKEDELGDRSIMFTVQNED
[2]
  % of fluorescence positive cells: 0.17%
[3]
  Kd: 595 nM
  Response (nm): 0.0257 nm
  koff: 0.0957 s⁻¹
  kon: 161000 M⁻¹ s⁻¹

B10: IL-18 variant polypeptide M40 (ligand)
chain: YFDKLKSKLSVIRNLNDQVLFIDQGNRPLFEDMTDSDCRDNAPRTIFIISMYKPSSWRGMAVTISVKCEKISTLSCENKIISFKEMNPPDWIKDTKSDIIFFQRSVPGHDNKMQFESSSYEGYFLACEKERDLFKLILKKEDELGDRSIMFTVQNED
[2]
  % of fluorescence positive cells: 39.6%
[3]
  Kd: 32.6 nM
  Response (nm): 0.161 nm
  koff: 0.0121 s⁻¹
  kon: 371000 M⁻¹ s⁻¹

B11: IL-18 variant polypeptide M39 (ligand)
chain: YFPKLRSKLSVIRNLNDQVLFIDQGNRPLFEDMTDSDCRDNAPRTIFIISMYKWSPGRGMAVTISVKCEKISTLSCENKIISFKEMNPPDVIKDTKSDIIFFQLSVPGHDNKMQFESSSYEGYFLACEKERDLFKLILKKEDELGDRSIMFTVQNED
[2]
  % of fluorescence positive cells: 76.5%
[3]
  Kd: 20.6 nM
  Response (nm): 0.0605 nm
  koff: 0.0221 s⁻¹
  kon: 1.07e+06 M⁻¹ s⁻¹

B12: IL-18 variant polypeptide M38 (ligand)
chain: YFPKLSSKLSVIRNLNDQVLFIDQGNRPLFEDMTDSDCRDNAPRTIFIISMYKWSGARGMAVTISVKCEKISTLSCENKIISFKEMNPPDVIKDTKSDIIFFQISVPGHDNKMQFESSSYEGYFLACEKERDLFKLILKKEDELGDRSIMFTVQNED
[2]
  % of fluorescence positive cells: 79.5%
[3]
  Kd: 120 nM
  Response (nm): 0.0307 nm
  koff: 0.0334 s⁻¹
  kon: 278000 M⁻¹ s⁻¹

B13: IL-18 variant polypeptide M31 (ligand)
chain: YFPKLRSKLSVIRNLNDQVLFIDQGNRPLFEDMTDSDCRDNAPRTIFIISMYKHSIHRGMAVTISVKCEKISTLSCENKIISFKEMNPPDIIKDTKSDIIFFQYSVPGHDNKMQFESSSYEGYFLACEKERDLFKLILKKEDELGDRSIMFTVQNED
[2]
  % of fluorescence positive cells: 69%
[3]
  Kd: 54.1 nM
  Response (nm): 0.0947 nm
  koff: 0.0189 s⁻¹
  kon: 349000 M⁻¹ s⁻¹

B14: IL-18 variant polypeptide M37 (ligand)
chain: YFPKLGSKLSVIRNLNDQVLFIDQGNRPLFEDMTDSDCRDNAPRTIFIISMYKQSVWRGMAVTISVKCEKISTLSCENKIISFKEMNPPDNIKDTKSDIIFFQRSVPGHDNKMQFESSSYEGYFLACEKERDLFKLILKKEDELGDRSIMFTVQNED
[2]
  % of fluorescence positive cells: 95.4%
[3]
  Kd: 21.8 nM
  Response (nm): 0.222 nm
  koff: 0.00883 s⁻¹
  kon: 404000 M⁻¹ s⁻¹

B15: IL-18 variant polypeptide M32 (ligand)
chain: YFPKLGSKLSVIRNLNDQVLFIDQGNRPLFEDMTDSDCRDNAPRTIFIISMYKSSSRRGMAVTISVKCEKISTLSCENKIISFKEMNPPDNIKDTKSDIIFFQRSVPGHDNKMQFESSSYEGYFLACEKERDLFKLILKKEDELGDRSIMFTVQNED
[2]
  % of fluorescence positive cells: 4.21%
[3]
  Kd: 17.3 nM
  Response (nm): 0.0381 nm
  koff: 0.0234 s⁻¹
  kon: 1.36e+06 M⁻¹ s⁻¹
